Data on 28 molecules can be found in patent US20230265179A1 (TWIST BIOSCIENCE, published 2023).

B1: CD40L-102 (VHH)
VHH: EVQLVESGGGLVQPGGSLRLSCAASGLTFSRYEMGWFRQAPGKEREFVAAVTEDGSIYADSVKGRFTISADNSKNTAYLQMNSLKPEDTAVYYCAAEIGYYSGGTYFSSEAWGQGTLVTVSS
B2: CD40L-60 (VHH)
VHH: EVQLVESGGGLVQPGGSLRLSCAASGLNLSRLDMGWFRQAPGKEREFVAAVDNDDNTEYADSVKGRFTISADNSKNTAYLQMNSLKPEDTAVYYCASDHYDTDTKSDVYNWGQGTLVTVSS
B3: CD40L-125 (VHH)
VHH: EVQLVESGGGLVQPGGSLRLSCAASGFTFDYYTMGWFRQAPGKEREFVAVIYSSDGSTLYADSVKGRFTISADNSKNTAYLQMNSLKPEDTAVYYCAIDEGMDYDGNFYDWGQGTLVTVSS
B4: CD40L-187 (antibody, V domains shown)
VH: EVQLLESGGGLVQPGGSLRLSCAASGFDFSDYEMSWVRQAPGKGLEWVSSITSEGGSTYYADSVKGRFTISRDNSKNTLYLQMNSLRAEDTAVYYCAKPGKNFDYWGQGTLVTVSS
VL: DIQMTQSPSSLSASVGDRVTITCRASSSVSYMHWYQQKPGKAPKLLIYHTSRLQSGVPSRFSGSGSGTDFTLTISSLQPEDFATYYCSAFTHNSDVFGQGTKVEIK
notes: IgG2
B5: CD40L-202 (antibody, V domains shown)
VH: B4 VH with D28T, S30A, D31S, S35T, G100D, K101V, N102L
VL: DIQMTQSPSSLSASVGDRVTITCRASQDIYQNLDWYQQKPGKAPKLLIYQDFKRPSGVPSRFSGSGSGTDFTLTISSLQPEDFATYYCQAWDNGAAVFGQGTKVEIK
notes: IgG2
B6: CD40L-197 (antibody, V domains shown)
VH: B4 VH with K101R, N102D
VL: DIQMTQSPSSLSASVGDRVTITCRTSQDIGNYLNWYQQKPGKAPKLLIYYDVNRPSGVPSRFSGSGSGTDFTLTISSLQPEDFATYYCQPSFYFPYTFGQGTKVEIK
notes: IgG2
B7: CD40L-195 (antibody, V domains shown)
VH: B4 VH with K101R, N102L
VL: DIQMTQSPSSLSASVGDRVTITCSGDNIGSIYASWYQQKPGKAPKLLIYQNDKRPSGVPSRFSGSGSGTDFTLTISSLQPEDFATYYCQQGYNSNDVDNVFGQGTKVEIK
notes: IgG2
B8: CD40L-189 (antibody, V domains shown)
VH: B4 VH with G100D, N102T
VL: DIQMTQSPSSLSASVGDRVTITCSGDTLGGKYAWWYQQKPGKAPKLLIYDNTNRPSGVPSRFSGSGSGTDFTLTISSLQPEDFATYYCQAWDNSAVIFGQGTKVEIK
notes: IgG2
B9: CD40L-201 (antibody, V domains shown)
VH: B4 VH with D28T, S30A, D31S, S35T, G100D, K101V, N102L
VL: DIQMTQSPSSLSASVGDRVTITCSGDNLRGYYASWYQQKPGKAPKLLIYGTSDLQSGVPSRFSGSGSGTDFTLTISSLQPEDFATYYCQAWDTNTVIFGQGTKVEIK
notes: IgG2
B10: CD40L-194 (antibody, V domains shown)
VH: B4 VH with D28T, S30E, Y32T, S35D, G100D, K101V, N102L
VL: DIQMTQSPSSLSASVGDRVTITCRASQNINYYLNWYQQKPGKAPKLLIYQNDKRPSGVPSRFSGSGSGTDFTLTISSLQPEDFATYYCQQSYENPLTFGQGTKVEIK
notes: IgG2
B11: CD40L-76 (VHH)
VHH: EVQLVESGGGLVQPGGSLRLSCAASGRTFSTSAMGWFRQAPGKEREWVATIYSRSGGGTAYADSVKGRFTISADNSKNTAYLQMNSLKPEDTAVYYCAKEGYDWGDYVMDYWGQGTLVTVSS
B12: CD40L-98 (VHH)
VHH: EVQLVESGGGLVQPGGSLRLSCAASGITFKRYDMGWFRQAPGKEREVVAVIYTSDGSTYYADSVKGRFTISADNSKNTAYLQMNSLKPEDTAVYYCAADRDRYRDGMGPMTTTDFRWGQGTLVTVSS
B13: CD40L-122 (VHH)
VHH: EVQLVESGGGLVQPGGSLRLSCAASGLLFSSYDMGWFRQAPGKEREFVAAISWSTGSGDDTYYADSVKGRFTISADNSKNTAYLQMNSLKPEDTAVYYCASDHYDTDTKSDVYNWGQGTLVTVSS
B14: CD40L-74 (VHH)
VHH: EVQLVESGGGLVQPGGSLRLSCAASGRTFSSYYMGWFRQAPGKERELVAVIYTSDGSTYYADSVKGRFTISADNSKNTAYLQMNSLKPEDTAVYYCAAWLNGGNRWGQGTLVTVSS
B15: CD40L-82 (VHH)
VHH: B14 VHH with T28I, S31T, Y33F, L47G, V50T, S54G, D55N, S57Y, Y59L
B16: CD40L-103 (VHH)
VHH: EVQLVESGGGLVQPGGSLRLSCAASGRSFSSVYAMGWFRQAPGKEREFIAVIYWRDGSSLYADSVKGRFTISADNSKNTAYLQMNSLKPEDTAVYYCAAEPYGSGSSLISEYDWGQGTLVTVSS
B17: CD40L-84 (VHH)
VHH: EVQLVESGGGLVQPGGSLRLSCAASGRISNINIMGWFRQAPGKEREFVAGISQSGGSTAYADSVKGRFTISADNSKNTAYLQMNSLKPEDTAVYYCSRDEKLGPYYFDYWGQGTLVTVSS
B18: CD40L-203 (antibody, V domains shown)
VH: EVQLLESGGGLVQPGGSLRLSCAASGGYNFRDYMHWVRQAPGKGLEWVAEIRNKANNHATKYADSVKGRFTISRDNSKNTLYLQMNSLRAEDTAVYYCAKNLGQGFDYWGQGTLVTVSS
VL: DIQMTQSPSSLSASVGDRVTITCRASQSISSYVNWYQQKPGKAPKLLIYANTNGPSGVPSRFSGSGSGTDFTLTISSLQPEDFATYYCQSYDNSVRGSRVFGQGTKVEIK
notes: IgG2
B19: CD40L-105 (VHH)
VHH: EVQLVESGGGLVQPGGSLRLSCAASGITFSSRTMGWFRQAPGKEREFVAAIRSSGGLFYADSVKGRFTISADNSKNTAYLQMNSLKPEDTAVYYCAAQDRRHGDYYTFDYHWGQGTLVTVSS
B20: CD40L-114 (VHH)
VHH: EVQLVESGGGLVQPGGSLRLSCAASGRTFSPYIMGWFRQAPGKEREFVAEIGWRDTTLYADSVKGRFTISADNSKNTAYLQMNSLKPEDTAVYYCAARRGGDYLPTDWGQGTLVTVSS
B21: CD40L-99 (VHH)
VHH: EVQLVESGGGLVQPGGSLRLSCAASGFTPDDYAMGWFRQAPGKEREFVADIMPYGSTEYADSVKGRFTISADNSKNTAYLQMNSLKPEDTAVYYCARRDAGIDFYYMDVWGQGTLVTVSS
B22: CD40L-73 (VHH)
VHH: EVQLVESGGGLVQPGGSLRLSCAASGFTLGNYAMGWFRQAPGKEREFVASITSYGDTYYADSVKGRFTISADNSKNTAYLQMNSLKPEDTAVYYCARDGYTYGVDYWGQGTLVTVSS
B23: CD40L-111 (VHH)
VHH: EVQLVESGGGLVQPGGSLRLSCAASGDTSEINDMGWFRQAPGKEREFVAAIYPSGRNAYYADSVKGRFTISADNSKNTAYLQMNSLKPEDTAVYYCAIPHGIAGRITWGQGTLVTVSS
B24: CD40L-91 (VHH)
VHH: EVQLVESGGGLVQPGGSLRLSCAASGGTFSSFPMGWFRQAPGKEREFVAAISWSEDNTYYADSVKGRFTISADNSKNTAYLQMNSLKPEDTAVYYCASRLAFCGRDCYLPTDWGQGTLVTVSS
B25: CD40L-96 (VHH)
VHH: B24 VHH with S31A, F47W, S52T, W53S, E55G, N57S, T58I, A97T, D112T
B26: CD40L-106 (VHH)
VHH: EVQLVESGGGLVQPGGSLRLSCAASGLTFNDYAMGWFRQAPGKEREFVAGITNGGGRTSYADSVKGRFTISADNSKNTAYLQMNSLKPEDTAVYYCAADVGPTVKWGQGTLVTVSS
B27: CD40L-80 (VHH)
VHH: EVQLVESGGGLVQPGGSLRLSCAASGFTFDDYDMGWFRQAPGKERELVASITSGGSTNYADSVKGRFTISADNSKNTAYLQMNSLKPEDTAVYYCAIPHGIDLYTFDWGQGTLVTVSS
B28: CD40L-115 (VHH)
VHH: EVQLVESGGGLVQPGGSLRLSCAASGRTFSRYEMGWFRQAPGKEREFVAAVTEDGSTYYADSVKGRFTISADNSKNTAYLQMNSLKPEDTAVYYCAIAHGSSTYNWGQGTLVTVSS

Residue numbers refer to the chain shown, from its start.

In one test the target is T1, CD40L over-expressed on Expi293 cells (UniProt P29965 1-261, limits assumed).
T1 construct: whole, on cells; also called cytokine over-expressing Expi293 cells
T1 sequence (looked up): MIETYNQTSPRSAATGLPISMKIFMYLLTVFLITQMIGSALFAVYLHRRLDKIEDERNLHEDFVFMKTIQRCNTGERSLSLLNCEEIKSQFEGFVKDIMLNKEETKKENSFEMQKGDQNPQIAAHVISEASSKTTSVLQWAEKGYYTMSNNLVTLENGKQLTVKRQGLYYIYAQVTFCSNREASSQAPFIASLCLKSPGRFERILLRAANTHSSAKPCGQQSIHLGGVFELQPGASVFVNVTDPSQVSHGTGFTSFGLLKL
In words: flow cytometry, 100 nM antibody, CD40L-Expi293 vs parent Expi293 cells.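 Also: ratio is the mean fluorescence intensity on CD40L-overexpressing Expi293 cells divided by the mean fluorescence intensity on parental Expi293 cells.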 For orientation: A flow cytometer gives signals particle by particle.
Experimental: All incubations and washes were in buffer containing PBS+1% BSA. MFI Ratio is defined by the mean fluorescence intensity (MFI) of the cytokine over-expressing Expi293 cell over the Expi293 parent cell. […] EC50 was calculated in GraphPad Prism.
B1: the “100 nM FACS (MFI Ratio)” value stood at 1.8 ratio.
For B2, the “100 nM FACS (MFI Ratio)” value is 50.4 ratio.
On the same count and under the same terms, in the case of B3 it was 6.6 ratio; in that of B4, 2.3 ratio; in that of B5, 14.2 ratio.
For the molecule B6, the “100 nM FACS (MFI Ratio)” value is 3.6 ratio.
The same measure, in the same setting: in the case of B7 it was 16.8 ratio; in that of B8, 4.7 ratio.
As to B9, the “100 nM FACS (MFI Ratio)” value came to 6.9 ratio.
Still for that read-out and setting: the value for B10 was 7.3 ratio; that for B11 was 9.6 ratio.
Still for that read-out and setting: the value for B12 was 6.4 ratio; that for B13 was 14.2 ratio; that for B14 was 8.7 ratio.
The same measure, in the same setting: the value for B15 was 18.6 ratio; that for B16 was 3.6 ratio.
Consider B17, for which the “100 nM FACS (MFI Ratio)” value was determined as 12.7 ratio.
On the same count and under the same terms, the value for B18 was 6.7 ratio.
The same measure, in the same setting: in the case of B19 it was 4.5 ratio.
Same read-out and setting: the value for B20 was 7.3 ratio; that for B21 was 3.1 ratio; that for B22 was 10.9 ratio.
As for B23, the “100 nM FACS (MFI Ratio)” value stood at 9.7 ratio.
Same read-out and setting: in the case of B24 it was 4.3 ratio; in that of B25, 3.7 ratio.
As to B26, the “100 nM FACS (MFI Ratio)” value is 2.7 ratio.
Still for that read-out and setting: in the case of B27 it was 4.6 ratio; in that of B28, 16.8 ratio.

The target of another test is T2, CD40L (UniProt P29965 113-261, limits assumed).
T2 construct: SPR analyte
T2 sequence (looked up): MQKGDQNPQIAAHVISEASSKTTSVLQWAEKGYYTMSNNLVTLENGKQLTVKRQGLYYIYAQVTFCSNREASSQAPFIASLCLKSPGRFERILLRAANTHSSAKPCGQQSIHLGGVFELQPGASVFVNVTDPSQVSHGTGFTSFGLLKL
In words: SPR (Carterra LSA), antibody amine-coupled, 1:1 model.
The Kd is the free concentration of one partner at which half of the binding sites on the other are occupied at equilibrium, for simple one-to-one binding. High values mean a looser complex, low ones a tighter complex. The term koff denotes the first-order rate constant of dissociation. Low readings indicate slow dissociation, high ones fast dissociation. A word on the kon: it is the second-order rate constant of association. B2 registered a Kd of 0.118 nM, a koff of 0.000108 s⁻¹ and a kon of 915000 M⁻¹ s⁻¹.
